# Source: article PMC10321576, “Cyclic peptides target the aromatic cage of a PHD-finger reader domain to modulate epigenetic protein function†” (Chemical Science, 2023)
# Bridge positions count the residues as written; N and C are the ends. Square brackets hold non-standard residues; d marks the D form. Ends that are not written are not given here. Lys(Me3) = C[N+](C)(C)CCCC[C@H](N)C(=O)O
# Key:
# KDM7B PHD-finger [1] = target: T1, KDM7B PHD-finger (UniProt Q9UPP1-2 1-447); assay: NMR titration; 1H-15N HSQC and 1H-NMR of isotopically labelled KDM7B PHD-finger, apo or with peptide; conditions: both partners purified
# T1 sequence (Q9UPP1 37-483): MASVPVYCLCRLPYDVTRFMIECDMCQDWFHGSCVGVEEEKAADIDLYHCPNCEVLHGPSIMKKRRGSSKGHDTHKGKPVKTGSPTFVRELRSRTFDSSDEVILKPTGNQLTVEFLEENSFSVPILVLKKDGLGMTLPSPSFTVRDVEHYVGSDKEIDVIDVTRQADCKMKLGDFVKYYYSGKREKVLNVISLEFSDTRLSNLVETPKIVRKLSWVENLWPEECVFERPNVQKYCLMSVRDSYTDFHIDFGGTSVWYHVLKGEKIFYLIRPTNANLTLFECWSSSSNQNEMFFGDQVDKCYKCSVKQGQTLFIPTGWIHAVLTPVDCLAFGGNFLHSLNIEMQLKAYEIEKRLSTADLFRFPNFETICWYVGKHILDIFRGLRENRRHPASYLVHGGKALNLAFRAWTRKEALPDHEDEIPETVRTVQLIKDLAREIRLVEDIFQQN
# KDM7B PHD-finger [2] = target: T1, KDM7B PHD-finger; assay: BLI; association and dissociation of the cyclic peptide (2-fold serial dilution) on the protein; curve fittings with a 1:1 binding model; conditions: both partners purified
# KDM7B PHD-finger [3] = target: T1, KDM7B PHD-finger; assay: BLI + AlphaScreen or HTRF; SAR of OC9 variants on KDM7B PHD-finger by affinity (BLI) and displacement (AS) assays; the sentence does not tell which gave the result; conditions: both partners purified
# [4] = target: T2, KDM7B (PHF8, JHDM1F) dual domain (PHD-JmjC) (UniProt Q9UPP1-2 1-447); assay: cell-based or functional assay
# T2 sequence (Q9UPP1 37-483): as above
# KDM7B PHD-finger [5] = target: T1, KDM7B PHD-finger; assay: ITC; binding curves fitted with a 1:1 binding model; conditions: both partners purified
# [6] = target: T2, KDM7B (PHF8, JHDM1F) dual domain …; assay: as above; conditions: both partners purified
# KDM7B PHD-finger [7] = target: T1, KDM7B PHD-finger; assay: AlphaScreen or HTRF; proximity assay of His-tagged protein and biotinylated H3(1-21)K4me3; displacement by titrated unlabelled peptide; conditions: both partners purified
# [8] = target: T2, KDM7B (PHF8, JHDM1F) dual domain …; assay: BLI; association and dissociation of the cyclic peptide (2-fold serial dilution) on the protein; curve fittings with a 1:1 binding model; conditions: both partners purified
binder,measurement,setting,value
YYLTHPYPS[dV]FRTC (ends and bridges not checked) [OC9 V10DV],Kd,KDM7B PHD-finger [1],503000 ± 1000 nM
same,Kd,KDM7B PHD-finger [2],> 10000 nM
YYLTH[trans‑4‑fluoroproline]YPSVFRTC (ends and bridges not checked) [OC9 with trans-4-fluoroproline at P6],fold higher affinity against the cis-fluoro variant at P6,KDM7B PHD-finger [3],> 10 fold
"{CH2CO}-YYLTHPYPSVFRTC (thioether N-14) [OC9, de novo cyclic peptide from mRNA display]","IC50 of inhibition of KDM7B demethylation of H3(1–21)K4me3K9me2, MALDI-TOF MS based assay",[4],1190 nM
same,"IC50 of inhibition of KDM7B demethylation of H3(1–21)K9me2, MALDI-TOF MS based assay",[4],510 nM
same,Kd,KDM7B PHD-finger [5],12 nM
same,Kd,[6],11 nM
same,IC50,KDM7B PHD-finger [7],32 nM
same,Kd,KDM7B PHD-finger [2],4 nM
same,dissociative half-life t1/2,KDM7B PHD-finger [2],8.1 min
same,Kd,[8],6 nM
same,dissociative half-life t1/2,[8],2.8 min
YYLTHPYPS[Lys(Me3)]FRTC (ends and bridges not checked) [OC9 V10Kme3],IC50,KDM7B PHD-finger [7],316 nM
same,Kd,KDM7B PHD-finger [2],533 nM
